For this experiment, the target named is recombinant human C1q (human) (UniProt P02745). In words: SPR, antibody captured on anti-kappa chip, C1q as analyte; signal relative to rituximab.
Sequence of recombinant human C1q (human) (P02745 23-245 limits assumed, chain 1 of 3): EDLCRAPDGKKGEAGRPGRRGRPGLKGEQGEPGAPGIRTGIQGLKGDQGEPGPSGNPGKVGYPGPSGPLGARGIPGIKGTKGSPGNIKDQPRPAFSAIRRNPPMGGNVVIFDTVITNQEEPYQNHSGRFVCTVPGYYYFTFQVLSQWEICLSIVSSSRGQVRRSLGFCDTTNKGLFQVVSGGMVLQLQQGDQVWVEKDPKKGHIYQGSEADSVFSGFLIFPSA
Sequence of recombinant human C1q (human) (P02746 28-253 limits assumed, chain 2 of 3, further chain): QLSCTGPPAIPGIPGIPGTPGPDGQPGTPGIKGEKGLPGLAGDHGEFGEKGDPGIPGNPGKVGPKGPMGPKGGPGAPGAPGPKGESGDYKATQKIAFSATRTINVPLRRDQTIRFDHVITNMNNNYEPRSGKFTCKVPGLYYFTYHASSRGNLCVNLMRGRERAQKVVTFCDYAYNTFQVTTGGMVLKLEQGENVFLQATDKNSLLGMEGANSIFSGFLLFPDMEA
Sequence of recombinant human C1q (human) (P02747 29-245 limits assumed, chain 3 of 3, further chain): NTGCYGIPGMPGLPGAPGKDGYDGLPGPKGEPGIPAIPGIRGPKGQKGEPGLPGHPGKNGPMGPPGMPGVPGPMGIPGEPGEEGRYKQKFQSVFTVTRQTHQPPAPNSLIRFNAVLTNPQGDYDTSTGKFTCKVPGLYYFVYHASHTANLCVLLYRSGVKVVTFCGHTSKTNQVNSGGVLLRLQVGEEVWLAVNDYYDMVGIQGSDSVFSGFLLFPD

Sequence of Lebrikizumab (Construct 1) (antibody; other documents disagree on this pair) (heavy): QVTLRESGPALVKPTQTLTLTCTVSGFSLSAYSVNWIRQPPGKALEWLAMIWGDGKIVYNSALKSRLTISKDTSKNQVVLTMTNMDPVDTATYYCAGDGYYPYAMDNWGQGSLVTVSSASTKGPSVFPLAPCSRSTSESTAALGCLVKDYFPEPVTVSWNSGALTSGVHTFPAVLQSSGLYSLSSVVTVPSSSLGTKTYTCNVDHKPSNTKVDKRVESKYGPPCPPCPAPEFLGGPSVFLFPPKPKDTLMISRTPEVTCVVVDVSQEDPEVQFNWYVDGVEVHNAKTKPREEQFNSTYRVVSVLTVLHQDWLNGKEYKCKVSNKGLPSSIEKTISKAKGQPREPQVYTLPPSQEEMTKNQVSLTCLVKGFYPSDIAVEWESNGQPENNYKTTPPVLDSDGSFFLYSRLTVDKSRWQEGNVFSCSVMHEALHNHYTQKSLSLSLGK
Sequence of Lebrikizumab (Construct 1) (antibody; other documents disagree on this pair) (light): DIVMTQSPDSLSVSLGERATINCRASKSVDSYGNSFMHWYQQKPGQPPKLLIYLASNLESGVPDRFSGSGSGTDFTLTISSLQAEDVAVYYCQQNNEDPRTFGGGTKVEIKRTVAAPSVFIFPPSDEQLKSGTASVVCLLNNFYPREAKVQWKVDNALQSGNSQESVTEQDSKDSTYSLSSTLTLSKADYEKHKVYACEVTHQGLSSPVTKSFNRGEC

As for “Lebrikizumab (Construct 1) (antibody; other documents disagree on this pair)”, the C1q (Signal Relative to Rituximab) worked out at 39.6%.

(Values after patent US20250129150A1.)
